Data taken from US20130209454A1 (CALIFORNIA INSTITUTE OF TECHNOLOGY, published 2013).
Like-named read-outs stand apart in the source and are kept apart here.

How the values were obtained:
Experiment in all cases: cell-based or functional assay
[1] = target: HIV-1 strain SC422661.8 envelope (gp120) (HIV-1)
[2] = target: HIV-1 strain CAP210.2.00.E8 envelope (gp120) (HIV-1)
[3] = target: HIV-1 strain CAP45.2.00.G3 envelope (gp120) (HIV-1)
[4] = target: HIV-1 strain TRO.11 envelope (gp120) (HIV-1)
[5] = target: HIV-1 strain Du172.17 envelope (gp120) (HIV-1)
[6] = target: HIV-1 strain AC10.0.29 envelope (gp120) (HIV-1)
[7] = target: HIV-1 Env of strain SC422661.8 (HIV-1)
[8] = target: HIV-1 Env of strain AC10.0.29 (HIV-1)
[9] = target: HIV-1 Env of strain QH0692.42 (HIV-1)
[10] = target: HIV-1 Env of strain T257-31 (HIV-1)
[11] = target: HIV-1 Env of strain CAP45.2.00.G3 (HIV-1)
[12] = target: HIV-1 Env of strain TRO.11 (HIV-1)
[13] = target: HIV-1 Env of strain ZM214M.PL15 (HIV-1)
[14] = target: HIV-1 strain T257-31 envelope (gp120) (HIV-1)
[15] = target: HIV-1 strain ZM214M.PL15 envelope (gp120) (HIV-1)
[16] = target: HIV-1 strain SC422661.8 envelope (gp120) (HIV-1); remark: listed apart in the source
[17] = target: HIV-1 strain CAP45.2.00.G3 envelope (gp120) (HIV-1); remark: listed apart in the source
[18] = target: HIV-1 strain TRO.11 envelope (gp120) (HIV-1); remark: listed apart in the source
[19] = target: HIV-1 strain AC10.0.29 envelope (gp120) (HIV-1); remark: listed apart in the source
[20] = target: HIV-1 strain QH0692.42 envelope (gp120) (HIV-1)

| Binder | neutralization IC50 [1] [mg/L] | neutralization IC50 [2] [mg/L] | neutralization IC50 [3] [mg/L] | neutralization IC50 [4] [mg/L] | neutralization IC50 [5] [mg/L] | neutralization IC50 [6] [mg/L] | also measured |
| --- | --- | --- | --- | --- | --- | --- | --- |
| 3BNC55 IgG (antibody, V domains shown) VH: QVQLVQSGTAVKRPGASVRVSCQASGYTFTDYFIYWWRQAPGQGLEWLGWINPLTSQPSYPSRFQGRLTLTRDTFDEMLYMDLRGLRSDDTGIYFCARRHSDYCDFDIWGSGTQIIVSS VL: DIQMTQSPSSLSASVGDKVTITCQTSAGYLNWYQQRRGRAPKLLMYDGSRLVTGVPSRFSGRRWGTQYNLTIGSLQPEDIATYYCQVYEFFGPGTRLDLKS | 0.3 | > 50 | > 50 | 7.6 | 2 | > 50 | – |
| NIH45-46 Δ99a-99d IgG (antibody, V domains shown) VH: QVRLSQSGGQMKKPGESMRLSCRASGYEFLNCPINWIRLAPGRRPEWMGWLKPRGGAVNYARKFQGRVTMTRDVYSDTAFLELRSLTSDDTAVYFCTRGKYCTYNWDFEHWGRGAPVTVSS VL: EIVLTQSPATLSLSPGETAIISCRTSQSGSLAWYQQRPGQAPRLVIYSGSTRAAGIPDRFSGSRWGADYNLSISNLESGDFGVYYCQQYEFFGQGTKVQVDI | – | – | – | – | – | – | neutralization IC50 [7]: 1.4 mg/L; neutralization IC50 [8]: 13 mg/L; neutralization IC50 [9]: 3.7 mg/L; neutralization IC50 [10]: 7 mg/L; neutralization IC50 [11]: > 50 mg/L; neutralization IC50 [12]: > 50 mg/L; neutralization IC50 [13]: 2.2 mg/L |
| NIH45-46 heavy chain paired with the VRC01 light chain (IgG) (antibody, V domains shown) VH: QVRLSQSGGQMKKPGESMRLSCRASGYEFLNCPINWIRLAPGRRPEWMGWLKPRGGAVNYARKFQGRVTMTRDVYSDTAFLELRSLTSDDTAVYFCTRGKYCTARDYYNWDFEHWGRGAPVTVSS VL: EIVLTQSPGTLSLSPGETAIISCRTSQYGSLAWYQQRPGQAPRLVIYSGSTRAAGIPDRFSGSRWGPDYNLTISNLESGDFGVYYCQQYEFFGQGTKVQVDI | – | – | – | – | – | – | neutralization IC50 [14]: 0.6 mg/L; neutralization IC50 [15]: 0.6 mg/L; neutralization IC50 [16]: 0.2 mg/L; neutralization IC50 [17]: 2.1 mg/L; neutralization IC50 [18]: 0.3 mg/L; neutralization IC50 [19]: 1 mg/L; neutralization IC50 [20]: 0.9 mg/L |
| 3BNC60 IgG (antibody, V domains shown) VH: QVHLSQSGAAVTKPGASVRVSCEASGYKISDHFIHWWRQAPGQGLQWVGWINPKTGQPNNPRQFQGRVSLTRQASWDFDTYSFYMDLKAVRSDDTAIYFCARQRSDFWDFDVWGSGTQVTVSS VL: DIQMTQSPSSLSARVGDTVTITCQANGYLNWYQQRRGKAPKLLIYDGSKLERGVPARFSGRRWGQEYNLTINNLQPEDVATYFCQVYEFIVPGTRLDLKRTVA | 0.1 | 4.7 | 10 | 0.07 | 0.05 | 13 | – |
| 3BNC117 IgG (antibody, V domains shown) VH: QVQLLQSGAAVTKPGASVRVSCEASGYNIRDYFIHWWRQAPGQGLQWVGWINPKTGQPNNPRQFQGRVSLTRHASWDFDTFSFYMDLKALRSDDTAVYFCARQRSDYWDFDVWGSGTQVTVSS VL: DIQMTQSPSSLSASVGDTVTITCQANGYLNWYQQRRGKAPKLLIYDGSKLERGVPSRFSGRRWGQEYNLTINNLQPEDIATYFCQVYEFVVPGTRLDLKRTVA | 0.07 | 11 | 16 | 0.6 | 0.04 | 6.5 | – |
| 12A12 IgG (antibody, V domains shown) VH: SQHLVQSGTQVKKPGASVRISCQASGYSFTDYVLHWWRQAPGQGLEWMGWIKPVYGARNYARRFQGRINFDRDIYREIAFMDLSGLRSDDTALYFCARDGSGDDTSWHLDPWGQGTLVIVSA VL: DIQMTQSPSSLSASVGDRVTITCQAGQGIGSSLQWYQQKPGKAPKLLVHGASNLHRGVPSRFSGSGFHTTFSLTISGLQRDDFATYFCAVLEFFGPGTKVEIKR | 0.2 | > 50 | 0.4 | 0.3 | 0.2 | 0.6 | – |
